System: Escherichia coli TOP10
Assay: shrunken log2 fold change of peptide-encoding DNA abundance (4.5 h post-induction vs induction); higher = less antimicrobial activity (less host growth inhibition)
Details: time post-induction: 4.5 h; library: site-saturation at positions 5, 18, 19, 20
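Note: peptides expressed intracellularly from a pBAD plasmid library in pooled LB shake-flask culture, induced with 0.3% L-arabinose, DNA abundance read by NGS, three biological replicates, DESeq2 with apeglm shrinkage.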

Sequence: RRIRSRPPRLPRPRPRPKGCPRP
- shrunken log2 fold change: 0.134

Sequence: RRIRDRPPRLPRPRPRPHCPPRP
- shrunken log2 fold change: -0.191

Sequence: RRIRKRPPRLPRPRPRPKPQPRP
- shrunken log2 fold change: 0.927

Sequence: RRIRWRPPRLPRPRPRPSICPRP
- shrunken log2 fold change: -0.0271

Sequence: RRIRYRPPRLPRPRPRPLWRPRP
- shrunken log2 fold change: 0.0545

Sequence: RRIRIRPPRLPRPRPRPAWGPRP
- shrunken log2 fold change: 0.0665

Sequence: RRIRTRPPRLPRPRPRPLGDPRP
- shrunken log2 fold change: -0.109

Sequence: RRIRGRPPRLPRPRPRPMLKPRP
- shrunken log2 fold change: 0.575

Sequence: RRIRYRPPRLPRPRPRPYAVPRP
- shrunken log2 fold change: -0.85

Sequence: RRIRKRPPRLPRPRPRPISLPRP
- shrunken log2 fold change: 0.00252

Sequence: RRIRYRPPRLPRPRPRPAWQPRP
- shrunken log2 fold change: 0.0499

Sequence: RRIRTRPPRLPRPRPRPGRLPRP
- shrunken log2 fold change: 0.171

Sequence: RRIRVRPPRLPRPRPRPKMKPRP
- shrunken log2 fold change: 0.839

Sequence: RRIRNRPPRLPRPRPRPGWRPRP
- shrunken log2 fold change: 0.564

Sequence: RRIRERPPRLPRPRPRPDRSPRP
- shrunken log2 fold change: -0.0225

Sequence: RRIRKRPPRLPRPRPRPHVFPRP
- shrunken log2 fold change: 0.015

Sequence: RRIRCRPPRLPRPRPRPDHFPRP
- shrunken log2 fold change: -0.175

Sequence: RRIRLRPPRLPRPRPRPYTLPRP
- shrunken log2 fold change: -0.143

Sequence: RRIRCRPPRLPRPRPRPFVYPRP
- shrunken log2 fold change: -0.526

Sequence: RRIRKRPPRLPRPRPRPYFSPRP
- shrunken log2 fold change: -0.178

Sequence: RRIRWRPPRLPRPRPRPDDDPRP
- shrunken log2 fold change: 3.98

Sequence: RRIRKRPPRLPRPRPRPPVRPRP
- shrunken log2 fold change: 0.265

Sequence: RRIRKRPPRLPRPRPRPVWQPRP
- shrunken log2 fold change: 0.184

Sequence: RRIRDRPPRLPRPRPRPYQDPRP
- shrunken log2 fold change: -0.00141

Sequence: RRIRVRPPRLPRPRPRPLSEPRP
- shrunken log2 fold change: 0.0246

Sequence: RRIRCRPPRLPRPRPRPWTYPRP
- shrunken log2 fold change: -0.015

Sequence: RRIRWRPPRLPRPRPRPILIPRP
- shrunken log2 fold change: -0.037

Sequence: RRIRWRPPRLPRPRPRPNLRPRP
- shrunken log2 fold change: 0.174

Sequence: RRIRFRPPRLPRPRPRPGDWPRP
- shrunken log2 fold change: 0.666

Sequence: RRIRFRPPRLPRPRPRPDSSPRP
- shrunken log2 fold change: -0.055

Sequence: RRIRMRPPRLPRPRPRPARHPRP
- shrunken log2 fold change: 0.974

Sequence: RRIRFRPPRLPRPRPRPIFDPRP
- shrunken log2 fold change: -0.268

Sequence: RRIRRRPPRLPRPRPRPDRWPRP
- shrunken log2 fold change: 0.957

Sequence: RRIRWRPPRLPRPRPRPCWMPRP
- shrunken log2 fold change: 0.0693

Sequence: RRIRYRPPRLPRPRPRPEWFPRP
- shrunken log2 fold change: -0.0405

Sequence: RRIRERPPRLPRPRPRPHNAPRP
- shrunken log2 fold change: -0.192

Sequence: RRIRYRPPRLPRPRPRPRYMPRP
- shrunken log2 fold change: -0.33

Sequence: RRIRIRPPRLPRPRPRPNTEPRP
- shrunken log2 fold change: -0.0443

Sequence: RRIRSRPPRLPRPRPRPKYDPRP
- shrunken log2 fold change: -0.0717

Sequence: RRIRKRPPRLPRPRPRPSMQPRP
- shrunken log2 fold change: 0.293

Sequence: RRIRIRPPRLPRPRPRPSFRPRP
- shrunken log2 fold change: -0.671

Sequence: RRIRFRPPRLPRPRPRPICNPRP
- shrunken log2 fold change: -0.424

Sequence: RRIRHRPPRLPRPRPRPGVIPRP
- shrunken log2 fold change: -0.0357

Sequence: RRIRDRPPRLPRPRPRPCVMPRP
- shrunken log2 fold change: 0.543

Sequence: RRIRKRPPRLPRPRPRPVHSPRP
- shrunken log2 fold change: 0.034

Sequence: RRIRSRPPRLPRPRPRPQGDPRP
- shrunken log2 fold change: 0.36

Sequence: RRIRNRPPRLPRPRPRPVPTPRP
- shrunken log2 fold change: 0.288

Sequence: RRIRDRPPRLPRPRPRPVFGPRP
- shrunken log2 fold change: 0.342

Sequence: RRIRGRPPRLPRPRPRPNGWPRP
- shrunken log2 fold change: 0.477

Sequence: RRIRERPPRLPRPRPRPGPSPRP
- shrunken log2 fold change: -0.109

Sequence: RRIRARPPRLPRPRPRPDACPRP
- shrunken log2 fold change: 0.955

Sequence: RRIRCRPPRLPRPRPRPLWLPRP
- shrunken log2 fold change: -0.0572

Sequence: RRIRSRPPRLPRPRPRPTGKPRP
- shrunken log2 fold change: 0.274

Sequence: RRIRKRPPRLPRPRPRPNCHPRP
- shrunken log2 fold change: -0.131

Sequence: RRIRCRPPRLPRPRPRPRIRPRP
- shrunken log2 fold change: 0.0722

Sequence: RRIRLRPPRLPRPRPRPACWPRP
- shrunken log2 fold change: 0.498

Sequence: RRIRDRPPRLPRPRPRPRFCPRP
- shrunken log2 fold change: 0.341

Sequence: RRIRMRPPRLPRPRPRPHTRPRP
- shrunken log2 fold change: 0.387

Sequence: RRIRNRPPRLPRPRPRPDNRPRP
- shrunken log2 fold change: -0.0135

Sequence: RRIRLRPPRLPRPRPRPGWFPRP
- shrunken log2 fold change: 0.147

— the supplement of paper PMC9112550, “Optimization of the antimicrobial peptide Bac7 by deep mutational scanning” (BMC Biology, 2022)
